Laboratory results published in the supplement of paper PMC9112550, “Optimization of the antimicrobial peptide Bac7 by deep mutational scanning” (BMC Biology, 2022).

Test system: Escherichia coli TOP10
Assay: shrunken log2 fold change of peptide-encoding DNA abundance (4.5 h post-induction vs induction); higher = less antimicrobial activity (less host growth inhibition)
Details: time post-induction: 4.5 h; library: site-saturation at positions 5, 18, 19, 20
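Further: peptides expressed intracellularly from a pBAD plasmid library in pooled LB shake-flask culture, induced with 0.3% L-arabinose, DNA abundance read by NGS, three biological replicates, DESeq2 with apeglm shrinkage.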

RRIRWRPPRLPRPRPRPDCLPRP
shrunken log2 fold change: 0.166

RRIRCRPPRLPRPRPRPHPGPRP
shrunken log2 fold change: -0.156

RRIRSRPPRLPRPRPRPDFEPRP
shrunken log2 fold change: -0.0501

RRIRVRPPRLPRPRPRPDDPPRP
shrunken log2 fold change: 0.359

RRIRKRPPRLPRPRPRPNCSPRP
shrunken log2 fold change: 0.149

RRIRSRPPRLPRPRPRPFRIPRP
shrunken log2 fold change: 0.0361

RRIRQRPPRLPRPRPRPRHSPRP
shrunken log2 fold change: -0.185

RRIRIRPPRLPRPRPRPLIKPRP
shrunken log2 fold change: -0.756

RRIRKRPPRLPRPRPRPEKAPRP
shrunken log2 fold change: 0.0283

RRIRVRPPRLPRPRPRPHWFPRP
shrunken log2 fold change: -0.11

RRIRCRPPRLPRPRPRPACGPRP
shrunken log2 fold change: 0.323

RRIRARPPRLPRPRPRPDYHPRP
shrunken log2 fold change: -0.879

RRIRFRPPRLPRPRPRPNHWPRP
shrunken log2 fold change: -0.131

RRIRCRPPRLPRPRPRPMNWPRP
shrunken log2 fold change: -0.217

RRIRFRPPRLPRPRPRPTYVPRP
shrunken log2 fold change: -0.137

RRIRLRPPRLPRPRPRPLPNPRP
shrunken log2 fold change: 0.11

RRIRARPPRLPRPRPRPIAMPRP
shrunken log2 fold change: 0.207

RRIRKRPPRLPRPRPRPQWGPRP
shrunken log2 fold change: 0.227

RRIRPRPPRLPRPRPRPCKCPRP
shrunken log2 fold change: -0.275

RRIRHRPPRLPRPRPRPLRQPRP
shrunken log2 fold change: -0.0125

RRIRGRPPRLPRPRPRPYAEPRP
shrunken log2 fold change: 1.19

RRIRGRPPRLPRPRPRPNSKPRP
shrunken log2 fold change: 0.0993

RRIRPRPPRLPRPRPRPGHIPRP
shrunken log2 fold change: -0.196

RRIRHRPPRLPRPRPRPNYRPRP
shrunken log2 fold change: -0.103

RRIRFRPPRLPRPRPRPQAMPRP
shrunken log2 fold change: 0.0123

RRIRSRPPRLPRPRPRPYLRPRP
shrunken log2 fold change: -0.00709

RRIRFRPPRLPRPRPRPFQFPRP
shrunken log2 fold change: -0.253

RRIRHRPPRLPRPRPRPDPVPRP
shrunken log2 fold change: 0.126

RRIRGRPPRLPRPRPRPDWSPRP
shrunken log2 fold change: 0.203

RRIRVRPPRLPRPRPRPTAYPRP
shrunken log2 fold change: -0.094

RRIRLRPPRLPRPRPRPLTMPRP
shrunken log2 fold change: -0.427

RRIRLRPPRLPRPRPRPSDFPRP
shrunken log2 fold change: -0.131

RRIRKRPPRLPRPRPRPCWNPRP
shrunken log2 fold change: -0.228

RRIRSRPPRLPRPRPRPVGEPRP
shrunken log2 fold change: 0.332

RRIRLRPPRLPRPRPRPCPGPRP
shrunken log2 fold change: -0.219

RRIRARPPRLPRPRPRPICIPRP
shrunken log2 fold change: 0.227

RRIRHRPPRLPRPRPRPLARPRP
shrunken log2 fold change: 0.113

RRIRDRPPRLPRPRPRPGQQPRP
shrunken log2 fold change: -0.0114

RRIRTRPPRLPRPRPRPLCRPRP
shrunken log2 fold change: -0.13

RRIRTRPPRLPRPRPRPLKFPRP
shrunken log2 fold change: -0.27

RRIRCRPPRLPRPRPRPHKIPRP
shrunken log2 fold change: -0.217

RRIRYRPPRLPRPRPRPASFPRP
shrunken log2 fold change: -0.138

RRIRVRPPRLPRPRPRPEGTPRP
shrunken log2 fold change: -0.00568

RRIRERPPRLPRPRPRPRQTPRP
shrunken log2 fold change: 0.253

RRIRKRPPRLPRPRPRPDKMPRP
shrunken log2 fold change: -0.48

RRIRDRPPRLPRPRPRPNVNPRP
shrunken log2 fold change: -0.166

RRIRDRPPRLPRPRPRPKHSPRP
shrunken log2 fold change: -0.211

RRIRERPPRLPRPRPRPSTEPRP
shrunken log2 fold change: 0.0386

RRIRSRPPRLPRPRPRPSYVPRP
shrunken log2 fold change: -0.735

RRIRLRPPRLPRPRPRPHLHPRP
shrunken log2 fold change: -0.424

RRIRPRPPRLPRPRPRPCPFPRP
shrunken log2 fold change: -0.371

RRIRYRPPRLPRPRPRPEMPPRP
shrunken log2 fold change: -0.0307

RRIRRRPPRLPRPRPRPDQTPRP
shrunken log2 fold change: 0.0174

RRIRPRPPRLPRPRPRPVIWPRP
shrunken log2 fold change: -0.0495

RRIRDRPPRLPRPRPRPKKSPRP
shrunken log2 fold change: 0.102

RRIRTRPPRLPRPRPRPKYCPRP
shrunken log2 fold change: -0.0743

RRIRARPPRLPRPRPRPITKPRP
shrunken log2 fold change: -0.0507

RRIRVRPPRLPRPRPRPAPLPRP
shrunken log2 fold change: 0.255

RRIRFRPPRLPRPRPRPRTVPRP
shrunken log2 fold change: 0.086

RRIRVRPPRLPRPRPRPPIMPRP
shrunken log2 fold change: -0.486

RRIRYRPPRLPRPRPRPNLSPRP
shrunken log2 fold change: -0.0996

RRIRVRPPRLPRPRPRPAFVPRP
shrunken log2 fold change: 0.00544

RRIRDRPPRLPRPRPRPVNGPRP
shrunken log2 fold change: -0.0115

RRIRVRPPRLPRPRPRPPKQPRP
shrunken log2 fold change: 0.0106

RRIRYRPPRLPRPRPRPHWEPRP
shrunken log2 fold change: -0.276

RRIRNRPPRLPRPRPRPTAYPRP
shrunken log2 fold change: -0.184

RRIRKRPPRLPRPRPRPAHMPRP
shrunken log2 fold change: 0.686

RRIRARPPRLPRPRPRPQQYPRP
shrunken log2 fold change: -0.203

RRIRVRPPRLPRPRPRPWKCPRP
shrunken log2 fold change: -0.173

RRIRERPPRLPRPRPRPQDPPRP
shrunken log2 fold change: -0.232

RRIRWRPPRLPRPRPRPKPLPRP
shrunken log2 fold change: 0.375

RRIRMRPPRLPRPRPRPAPRPRP
shrunken log2 fold change: 1.72

RRIRFRPPRLPRPRPRPMCAPRP
shrunken log2 fold change: 0.253

RRIRVRPPRLPRPRPRPPADPRP
shrunken log2 fold change: 0.565

RRIRLRPPRLPRPRPRPENQPRP
shrunken log2 fold change: -0.0987

RRIRERPPRLPRPRPRPRGCPRP
shrunken log2 fold change: 0.286

RRIRARPPRLPRPRPRPDDHPRP
shrunken log2 fold change: 0.432

RRIRNRPPRLPRPRPRPYLDPRP
shrunken log2 fold change: -0.181

RRIRVRPPRLPRPRPRPYDNPRP
shrunken log2 fold change: -0.199

RRIRFRPPRLPRPRPRPKSSPRP
shrunken log2 fold change: -0.103

RRIRKRPPRLPRPRPRPSIVPRP
shrunken log2 fold change: -0.059

RRIRRRPPRLPRPRPRPWKYPRP
shrunken log2 fold change: -0.478

RRIRHRPPRLPRPRPRPILVPRP
shrunken log2 fold change: -0.148

RRIRPRPPRLPRPRPRPVFMPRP
shrunken log2 fold change: -0.185

RRIRWRPPRLPRPRPRPQTIPRP
shrunken log2 fold change: 0.106

RRIRARPPRLPRPRPRPDKTPRP
shrunken log2 fold change: -0.00345

RRIRQRPPRLPRPRPRPHGRPRP
shrunken log2 fold change: -0.0154

RRIRMRPPRLPRPRPRPCMLPRP
shrunken log2 fold change: 0.303

RRIRYRPPRLPRPRPRPVITPRP
shrunken log2 fold change: -0.241

RRIRLRPPRLPRPRPRPYLYPRP
shrunken log2 fold change: -0.164

RRIRIRPPRLPRPRPRPVDIPRP
shrunken log2 fold change: -0.405

RRIRHRPPRLPRPRPRPWHPPRP
shrunken log2 fold change: -0.801

RRIRPRPPRLPRPRPRPNNLPRP
shrunken log2 fold change: -0.181

RRIRMRPPRLPRPRPRPPWEPRP
shrunken log2 fold change: 0.601

RRIRIRPPRLPRPRPRPRQGPRP
shrunken log2 fold change: 0.0734

RRIRYRPPRLPRPRPRPHIVPRP
shrunken log2 fold change: -0.102

RRIRMRPPRLPRPRPRPGWRPRP
shrunken log2 fold change: 1.15

RRIRLRPPRLPRPRPRPEDNPRP
shrunken log2 fold change: 0.0216

RRIRDRPPRLPRPRPRPLYFPRP
shrunken log2 fold change: -0.601

RRIRMRPPRLPRPRPRPVNKPRP
shrunken log2 fold change: -0.256

RRIRTRPPRLPRPRPRPFMKPRP
shrunken log2 fold change: -0.661

RRIRCRPPRLPRPRPRPHCAPRP
shrunken log2 fold change: -0.254

RRIRERPPRLPRPRPRPCFMPRP
shrunken log2 fold change: -0.231

RRIRIRPPRLPRPRPRPFADPRP
shrunken log2 fold change: -0.26

RRIRGRPPRLPRPRPRPHTQPRP
shrunken log2 fold change: 0.0483

RRIRDRPPRLPRPRPRPVMHPRP
shrunken log2 fold change: -0.112

RRIRKRPPRLPRPRPRPRRRPRP
shrunken log2 fold change: 1.27

RRIRGRPPRLPRPRPRPMWIPRP
shrunken log2 fold change: 0.218

RRIRCRPPRLPRPRPRPNAGPRP
shrunken log2 fold change: -0.0355
